{"source": "paper PMC3433420", "about": "“Comprehensive Binary Interaction Mapping of SH2 Domains via Fluorescence Polarization Reveals Novel Functional Diversification of ErbB Receptors” (PLoS ONE, 2012)", "assay_in_all_cases": "peptide or protein array; SH2/PTB proteins spotted on aldehyde slides, rhodamine peptide titrated in buffer B (20 mM HEPES, 100 mM KCl, 0.1% Tween-20, 5 mM DTT, pH 7.8), 1 h at room temperature; replicate assays", "settings_in_all_cases": "both partners purified", "key": {"GRAP2 SH2 domain": {"molecular_target": "T1, GRAP2 SH2 domain (human, UniProt O75791 58-149)", "T1 construct": "GRAP2, human; source: bacterial expression, purified", "T1 sequence (looked up)": "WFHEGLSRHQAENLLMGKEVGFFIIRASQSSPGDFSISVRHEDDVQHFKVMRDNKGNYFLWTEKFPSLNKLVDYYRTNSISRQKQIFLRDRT"}, "GRB10 SH2 domain": {"molecular_target": "T2, GRB10 SH2 domain (human, UniProt Q13322 493-574)", "T2 construct": "GRB10, human; source: bacterial expression, purified", "T2 sequence (looked up)": "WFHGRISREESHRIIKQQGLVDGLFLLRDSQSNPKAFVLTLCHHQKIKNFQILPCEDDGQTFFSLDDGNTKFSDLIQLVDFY"}, "NCK1 SH2 domain": {"molecular_target": "T3, NCK1 SH2 domain (human, UniProt P16333 282-376)", "T3 construct": "NCK1, human; source: bacterial expression, purified"}, "BCAR3 SH2 domain": {"molecular_target": "T4, BCAR3 SH2 domain (human, UniProt O75815 154-253)", "T4 construct": "BCAR3, human; source: bacterial expression, purified", "T4 sequence (looked up)": "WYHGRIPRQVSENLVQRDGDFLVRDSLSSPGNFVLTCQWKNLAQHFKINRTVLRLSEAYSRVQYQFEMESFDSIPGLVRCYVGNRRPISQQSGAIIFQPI"}, "[1]": {"molecular_target": "T5, PIK3R3 C-terminal SH2 domain (human)", "T5 construct": "PIK3R3, human; source: bacterial expression, purified"}, "SH2D1B SH2 domain": {"molecular_target": "T6, SH2D1B SH2 domain (human, UniProt O14796 5-101)", "T6 construct": "SH2D1B, human; source: bacterial expression, purified", "T6 sequence (looked up)": "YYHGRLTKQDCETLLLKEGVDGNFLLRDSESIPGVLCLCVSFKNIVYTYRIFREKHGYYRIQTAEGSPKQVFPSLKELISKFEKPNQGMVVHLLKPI"}, "SOCS6 SH2 domain": {"molecular_target": "T7, SOCS6 SH2 domain (human, UniProt O14544 384-491)", "T7 construct": "SOCS6, human; source: bacterial expression, purified", "T7 sequence (looked up)": "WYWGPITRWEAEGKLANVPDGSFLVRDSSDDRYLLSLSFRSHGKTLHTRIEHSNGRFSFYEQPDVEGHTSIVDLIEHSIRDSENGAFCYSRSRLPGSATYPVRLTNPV"}, "[2]": {"molecular_target": "T8, SYK N-terminal SH2 domain (human)", "T8 construct": "SYK, human; source: bacterial expression, purified"}, "TNS3 SH2 domain": {"molecular_target": "T9, TNS3 SH2 domain (human, UniProt Q68CZ2 1172-1282)", "T9 construct": "TNS3, human; source: bacterial expression, purified", "T9 sequence (looked up)": "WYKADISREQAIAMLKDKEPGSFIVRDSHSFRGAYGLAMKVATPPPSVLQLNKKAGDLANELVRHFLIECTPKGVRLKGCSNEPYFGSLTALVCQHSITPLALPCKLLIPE"}, "[3]": {"molecular_target": "T10, ZAP70 C-terminal SH2 domain (human, UniProt P43403 1-619)", "T10 construct": "ZAP70, human; source: bacterial expression, purified", "T10 sequence (looked up)": "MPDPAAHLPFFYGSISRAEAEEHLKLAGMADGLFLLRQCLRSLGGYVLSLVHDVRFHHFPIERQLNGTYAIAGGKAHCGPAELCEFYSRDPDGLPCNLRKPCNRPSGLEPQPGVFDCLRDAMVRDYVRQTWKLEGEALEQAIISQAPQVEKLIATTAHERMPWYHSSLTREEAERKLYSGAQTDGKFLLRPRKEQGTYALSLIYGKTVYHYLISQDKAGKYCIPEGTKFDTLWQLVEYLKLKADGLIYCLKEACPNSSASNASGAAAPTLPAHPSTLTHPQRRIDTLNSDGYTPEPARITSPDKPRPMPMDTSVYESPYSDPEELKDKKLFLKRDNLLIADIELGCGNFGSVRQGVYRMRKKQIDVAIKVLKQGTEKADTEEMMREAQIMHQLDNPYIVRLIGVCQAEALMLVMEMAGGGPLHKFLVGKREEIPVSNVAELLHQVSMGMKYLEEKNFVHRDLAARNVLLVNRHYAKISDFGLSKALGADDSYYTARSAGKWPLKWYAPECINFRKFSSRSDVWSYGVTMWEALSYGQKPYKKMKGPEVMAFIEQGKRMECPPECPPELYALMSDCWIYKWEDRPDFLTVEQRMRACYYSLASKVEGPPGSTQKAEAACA"}}, "note": "Several values for one entry are separate records, joined by “and”; a condition that tells them apart may be missing. Equal values may be shown once. Non-standard residues stand in square brackets, D forms with d. No end group written: not given here. pY = N[C@@H](Cc1ccc(OP(=O)(O)O)cc1)C(=O)O; Rhodamine = not defined here"}
{"binder": "Rhodamine-ETDG[pY]VAPLTCSD (reading uncertain)", "note": "[ErbB2 pY1127 phosphopeptide, rhodamine-labelled, for protein microarrays]", "values": [{"measurement": "Kd", "setting": "GRAP2 SH2 domain", "value": 19400, "unit": "nM"}, {"measurement": "Kd", "setting": "GRB10 SH2 domain", "value": "1900 nM and 2340 nM"}, {"measurement": "Kd", "setting": "NCK1 SH2 domain", "value": 6850, "unit": "nM"}, {"measurement": "Kd", "setting": "BCAR3 SH2 domain", "value": 726, "unit": "nM"}, {"measurement": "Kd", "setting": "[1]", "value": "2040 nM and 1210 nM"}, {"measurement": "Kd", "setting": "SH2D1B SH2 domain", "value": 2280, "unit": "nM"}, {"measurement": "Kd", "setting": "SOCS6 SH2 domain", "value": "8930 nM and 5200 nM"}, {"measurement": "Kd", "setting": "[2]", "value": "3210 nM and 2330 nM"}, {"measurement": "Kd", "setting": "TNS3 SH2 domain", "value": 5960, "unit": "nM"}, {"measurement": "Kd", "setting": "[3]", "value": "2200 nM and 3210 nM"}]}
